Assays:
[1] = substrate: CC(C)C[C@@H]1NC(=O)[C@@H](C(C)C)NC(=O)[C@@H]2CCCN2C(=O)[C@@H](CC(=O)O)NC(=O)[C@@H](Cc2c[nH]c3ccccc23)NC1=O; experiment: TP_TRANSPORTER: uptake in membrane vesicles from Mrp2-expressing Sf9 cells; assay type: functional, cell membranes, Membrane vesicle
[2] = substrate: CC(C)C[C@@H]1NC(=O)[C@@H](C(C)C)NC(=O)[C@@H]2CCCN2C(=O)[C@@H](CC(=O)O)NC(=O)[C@@H](Cc2c[nH]c3ccccc23)NC1=O; experiment: TP_TRANSPORTER: uptake in membrane vesicle from Mrp6-expressing Sf9 cells; assay type: functional, cell membranes

B1: ATP-binding cassette sub-family C member 2 (Rattus norvegicus) (protein)
chain: MDKFCNSTFWDLSLLESPEADLPLCFEQTVLVWIPLGFLWLLAPWQLYSVYRSRTKRSSITKFYLAKQVFVVFLLILAAIDLSLALTEDTGQATVPPVRYTNPILYLCTWLLVLAVQHSRQWCVRKNSWFLSLFWILSVLCGVFQFQTLIRALLKDSKSNMAYSYLFFVSYGFQIVLLILTAFSGPSDSTQTPSVTASFLSSITFSWYDRTVLKGYKHPLTLEDVWDIDEGFKTRSVTSKFEAAMTKDLQKARQAFQRRLQKSQRKPEATLHGLNKKQSQSQDVLVLEEAKKKSEKTTKDYPKSWLIKSLFKTFHVVILKSFILKLIHDLLVFLNPQLLKLLIGFVKSSNSYVWFGYICAILMFAVTLIQSFCLQSYFQHCFVLGMCVRTTVMSSIYKKALTLSNLARKQYTIGETVNLMSVDSQKLMDATNYMQLVWSSVIQITLSIFFLWRELGPSILAGVGVMVLLIPVNGVLATKIRNIQVQNMKNKDKRLKIMNEILSGIKILKYFAWEPSFQEQVQGIRKKELKNLLRFGQLQSLLIFILQITPILVSVVTFSVYVLVDSANVLNAEKAFTSITLFNILRFPLSMLPMVTSSILQASVSVDRLERYLGGDDLDTSAIRRVSNFDKAVKFSEASFTWDPDLEATIQDVNLDIKPGQLVAVVGTVGSGKSSLVSAMLGEMENVHGHITIQGSTAYVPQQSWIQNGTIKDNILFGSEYNEKKYQQVLKACALLPDLEILPGGDMAEIGEKGINLSGGQKQRVSLARAAYQDADIYILDDPLSAVDAHVGKHIFNKVVGPNGLLAGKTRIFVTHGIHFLPQVDEIVVLGKGTILEKGSYRDLLDKKGVFARNWKTFMKHSGPEGEATVNNDSEAEDDDDGLIPTMEEIPEDAASLAMRRENSLRRTLSRSSRSSSRRGKSLKNSLKIKNVNVLKEKEKEVEGQKLIKKEFVETGKVKFSIYLKYLQAVGWWSILFIILFYGLNNVAFIGSNLWLSAWTSDSDNLNGTNNSSSHRDMRIGVFGALGLAQGICLLISTLWSIYACRNASKALHGQLLTNILRAPMRFFDTTPTGRIVNRFSGDISTVDDLLPQTLRSWMMCFFGIAGTLVMICMATPVFAIIIIPLSILYISVQVFYVATSRQLRRLDSVTKSPIYSHFSETVTGLPIIRAFEHQQRFLAWNEKQIDINQKCVFSWITSNRWLAIRLELVGNLVVFCSALLLVIYRKTLTGDVVGFVLSNALNITQTLNWLVRMTSEAETNIVAVERISEYINVENEAPWVTDKRPPADWPRHGEIQFNNYQVRYRPELDLVLKGITCNIKSGEKVGVVGRTGAGKSSLTNCLFRILESAGGQIIIDGIDVASIGLHDLRERLTIIPQDPILFSGSLRMNLDPFNKYSDEEVWRALELAHLRSFVSGLQLGLLSEVTEGGDNLSIGQRQLLCLGRAVLRKSKILVLDEATAAVDLETDSLIQTTIRKEFSQCTVITIAHRLHTIMDSDKIMVLDNGKIVEYGSPEELLSNRGSFYLMAKEAGIENVNHTEL
[1]
  Km: 124 µM

B2: ATP-binding cassette sub-family C member 6 (Rattus norvegicus) (protein)
chain: MNGEHSMATPGESCAGLRVWNQTEQEPVAYHLLNLCFLRAAGSWVPPMYLWVLGPIYLLYIHRHGCCYLRMSRLFKIKMVLGFALILLYTFNAAVPLWRIHRGMPQAPELLIHPTVWLTTMSFATFLIHMERKKGVRASGLLFGYWLLCCLVPAIDTVQQASAGSFRQEPLHHLATYLCLSLVVAELVLSCLVDQPPFFSEDSKPLNPCPEAEASFPSKAMFWWASGLLWKGYRKLLGPKDLWSLERENSSEELVSQLEREWRRNFSELPGHKGHSGMGTPETEAFLQPERSQRGPLLRAIWRVFRSTFLLGTLSLVISDAFRFAVPKLLSLFLEFMGDLESSAWTGWLLAVLMFLSACLQTLFEQQYMYRVKVLQMRLRTAITGLVYRKVLVLSSGSRKSSAAGDVVNLVSVDVQRLVESILHLNGLWLLFLWIIVCFVYLWQLLGPSALTAVAVFLSLLPLNFFITKKRSFHQEEQMRQKASRARLTSSMLRTVRTIKSHGWECAFLERLLHIRGQELGALKTSAFLFSVSLVSFQVSTFLVALVVFAVHTLVAEDNAMDAEKAFVTLTVLSILNKAQAFLPFSVHCLVQARVSFDRLAAFLCLEEVDPNGMVLSPSRCSSKDRISIHNGTFAWSQESPPCLHGINLTVPQGCLLAVVGPVGAGKSSLLSALLGELLKVEGSVSIEGSVAYVPQEAWVQNTSVVENVCFRQELDLPWLQEVLEACALGSDVASFPAGVHTPVGEQGMNLSGGQKQRLSLARAVYRRAAVYLMDDPLAALDAHVSQEVFKQVIGPSGLLQGTTRILVTHTLHVLPQADQILVLANGTIAEMGSYQDLLHRNGALVGLLDGARQPAGEGEGEAHAAATSDDLGGFSGGGTPTRRPERPRPSDAAPVKGSTSEAQMEPSLDDVEVTGLTAGEDSVQYGRVKSATYLSYLRAVGTPLCTYTLFLFLCQQVASFCQGYWLSLWADDPVVDGKQMHSALRGSIFGLLGCLQAIGLFASMAAVFLGGARASCLLFRSLLWDVARSPIGFFERTPVGNLLNRFSKETDIVDVDIPDKMRTLLTYAFGLLEVGLAVSMATPLAIVAILPLMLLYAGFQSLYVATCCQLRRLESASYSSVCSHLAETFQGSQVVRAFQAQGPFTAQHDALMDENQRISFPRLVADRWLAANLELLGNGLVFVAATCAVLSKAHLSAGLAGFSVSAALQVTQTLQWVVRSWTDLENSMVAVERVQDYVHTPKEAPWRLPSSAAQPLWPCGGQIEFRDFGLRHRPELPMAVQGVSLKIHAGEKVGIVGRTGAGKSSLTWGLLRLQEATEGGIWIDGVPITDMGLHTLRSRITIIPQDPVLFPGSLRMNLDLLQENTDEGIWAALETVQLKAFVTSLPGQLQYECSGQGDDLSVGQKQLLCLARALLRKTQILILDEATASVDPGTEIQMQAALERWFAQCTVLLIAHRLRSVMNCARVLVMDEGQVAESGSPAQLLAQKGLFYRLAQESGLA
[2]
  Km: 17 µM
